The results in this text go back to the DeepSol protein solubility set.

The data set is described as follows: soluble on expression in E. coli; label from the status in PepcDB or PDB records.
With “MHIESPIKRRQSTRIYVGNVPIGDGAPIAVQSMTNTRTTDVDATVAQIKSLEKVGADIVRVSVPTMDAAEAFKVIKQQVSVPLVADIHFDYRIALQVAEYGVDCLRINPGNIGNEQRIRSVVDCARDKNIPIRIGVNGGSLEKDIQAKYKEPTAEALLESAMRHVDILDRLNFDQFKVSVKASDVFLAVDSYRLLAKQIAQPLHLGITEAGGARAGSVKSAVGLGMLLSEGIGDTLRISLAADPVEEIKVGFDILKSLRIRSRGINFIACPTCSRQEFDVIATVNELEQRLEDLITPMDVSLIGCVVNGPGEAEVSHMGIAGSNRKSAFYEDGVRQKERFDNDNIVDQLEAKIRAKAATLSKENQIDINQID”, the “soluble on expression in E. coli” value is on record as “not soluble”.
On to “MGSDKIHHHHHHMTKNTVRTYIKQTWKTLTRSHQHLLESAQDTKLEHQPNTPWIIYISPQEDCNTVQSVLERSLSAKEMQQIEIRTLPSEVEAIQEHGLLYLPGAYVVPGGRFNEMYGWDSYFILLGLLQDEEWELAQSQVDQLLYQVQHYGTILNANRTYMLTRSQPPVLSMMVLALFQHTQDQAWLKSTLPLLEQFYYYWVVPPHLNSATGLSRYYALGEGAAPEVLFSELDETGRSHYERVKEYYKTFEIDDYDVSLFYDSERDELTDLFYKGDRSMRESGFDITNRFGPFSVDIVHYAPVCLNSLLYQMEQDLAQIHKILDNPELAEQWSDRATLRRERINQYLWDEEKGIYLDYHFYSGKRRHYEFATTFYPLWTGLSSPEQAQRIVENLSLFTAPGGIFTSTHVTGNQWDAPFGWAPLTLIAVQGLYRYGYRKEGDDIAHKFLTMAIQEFTKYGFFVEKYDVERCSAQVSDEICFGYSSNEIGFGWTNGVILELLANLDDS”, for which the “soluble on expression in E. coli” value is listed as “not soluble”.
Then “MSYKGSSIPVCSRISSLYFFSVYLQDLADMEDRTSTSRCSSTTRIKPTKIAGFGTVPLLSSAGTNQSVLSTKSAKSCLSNTIAASMTEPQVSMTQVDRMYEDNLARKKRSMVAVSEFNKIYGQEYHPPSSSESTRSFYENIDAVYPSSKASESSSSSASTGSSDNRKDIEKWEKLDSEAESDIELFIKVSDCFD”, with “not soluble”; and “MIQKINILDSSQSGVKNGADSEAVLAALIEHLELINPSGRLSQNTRSAMLQLREEEWSEFFFWLLNSLECLDYVIINLTPESKKTLMSEHRNNIQVAIDALYSQRRRKSPGDESETLTRRNDAIFGNHVWQTFAQYFPPGLEKPSV”, with “not soluble”; and “RKEIQPIRELAKAATLMSSRLDVPEVSERGSNELKAAVRAFNKMNRRIDSHIKDREMLFSAISHDLKTPIACLKLRAEMLDDDADRERFIRLSNDLDLMVKGALQCIKETDIHEEIEPINFTQLIQHISSNIADAPDTIRIHGEIRTHFAGK”, with “not soluble”.
Then “MTHNIHDNISQWMKSNEETPIVMSSRIRLARNLENHVHPLMYATENDGFRVINEVQDALPNFELMRLDQMDQQSKMKMVAKHLISPELIKQPAAAVLVNDDESLSVMINEEDHIRIQAMGTDTTLQALYNQASSIDDELDRSLDISYDEQLGYLTTCPTNIGTGMRASVMLHLPGLSIMKRMTRIAQTINRFGYTIRGIYGEGSQVYGHTYQVSNQLTLGKSELEIIETLTEVVNQIIHEEKQIRQKLDTYNQLETQDRVFRSLGILQNCRMITMEEASYRLSEVKLGIDLNYIELQNFKFNELMVAIQSPFLLDEEDDKSVKEKRADILREHIK”, with “not soluble”; and “MIERGKFRSLTLINWNGFFARTFDLDELVTTLSGGNGAGKSTTMAAFVTALIPDLTLLHFRNTTEAGATSGSRDKGLHGKLKAGVCYSMLDTINSRHQRVVVGVRLQQVAGRDRKVDIKPFAIQGLPMSVQPTQLVTETLNERQARVLPLNELKDKLEAMEGVQFKQFNSITDYHSLMFDLGIIARRLRSASDRSKFYRLIEASLYGGISSAITRSLRDYLLPENSG”, with “soluble”; and “MVQLDRFEILFNNPEQAYFAGQEISGKVIIENKEPKKVNEILLELKGRARTYWTKHSGKSRKHCSHSEPYFLEQFNPGYTHKFTVVKDGKEKERILPAGIHQVPFSYTLPKSLPSSFEGEFGHIRYTCKAICERPWDFDIVSRKAFTVVGIEDINSDPKLNEPATCVESNHAVTFCCRSAGSVTGEIRISKCGYTPGEKIDVSFKVINLSSKTRTTALRFVQQTTYKAKTFAGHEHIKNVVRVISKIDKGEVPGGSTTEWQEESITIPSLPPKLGKCKILSVTYSVELEVEQTLTVPCPIVIGSIPQLSQLLIHSKQSVQSAGNGSLPKSSIKDSPPKWDSESCVQVTITDESGQLVEELGNEMEALLSARKRVRMPSSILSELYPTMPSPYYKESFFGASDISEEKEQAQFGEASFAPKYPFYTD”, with “not soluble”.
Consider “MGSDKIHHHHHHEIMTRENNDQETLKLIQENKLQAEGNIFANVSALKDQNKRFQDECHSEKKQFGIKVEETTAQNNDEVLKESAQTNHIKLGNQQNKLTHESRIMALKEGNTVTKIHVGQAQEKDRKETNFIAAVNRMIQAGRDLPETVDSLEGHTLKLRYGSDASALESDIGLCEIIVSSINRKISKLQDSCIDLSNYAIADHRMVQEMQKNALGINESVRRIQSHLTQFRVSLSDNPITNSMELYKKVQTESHSLSTKINSMPVVTETNHAVAYLRKQRETLALNLPTVA”, for which the “soluble on expression in E. coli” value is “not soluble”.
On to “MRIALIFLVLLVSFASSCKNFDKYMNMFCRYGLEQSPCTVEDYSTYKSACCAMKNNCSYKEFPKDDVCCFTVECLKRCFPEKLLKNDKVY”, for which the “soluble on expression in E. coli” value is reported as “not soluble”.
To “MSASYQTIEHDVPQSYRDKILKWNGWGYSDSQFAINKDGHVTFTGDKYEISGKVMPHFRPWFENYLGIDLGFVSPAQKLSDVIIDAPVENEDIIEFLQENKISFSNEARIRLMRGHGHTVHDMINLREGKIPRLPDIVVWPKSEHEIVKIIEGAMSHNCAIIPIGGGTSVTNALDTPETEKRAVISMDMALLDKILWIDRENLTCRAQAGIVGQSLERQLNKKGFTCGHEPDSIEFSTLGGWVSTRASGMKKNKYGNIEDLVVHLNFVCPKGIIQKQCQVPRMSSGPDIHQIILGSEGTLGVVSEVTIKIFPIPEVKRFGSFVFPNFESGVNFFREVAIQRCQPASLRLMDNDQFVMGQALKVASDSWWADLKSSVSKMYITSWKGFKVDEICAATCVYEGNREEVDQHEERLNKLAEQFHGVVGGAENGQYGYRLTFAIAYLRDLGMNHGVLGESFETSVPWDKVLSLCRNVKELMKREAKAQGVTHPVLANCRVTQVYDAGACVYFYFGFNARGLKNGLEVYDRIETAARDEIIACGGSISHHHGVGKIRKQWMLTTNGAVGIALLKAIKSELDPANIFASANLIDIIGSPHCKL” belongs “not soluble”; to “MERIAFVYMGGDEFKWLFFEVYDRVRRFMKDVNLGIIPIYAGKIKLPPGMLVRVNAGNGYIKMYPFEAVVEALYGKLVEMRDDVKDDTLTKIFGITTFPIGSRKQYFDIYKKYLGIQVSIGNYNVLALSIKPFYTENRELFVERVFKGVLHEIGHLYGLSHCKNDCVMNPPNDLKDWDRRAPSYCNSCLRELKRKVKPMPLLLHRAYECFHC”, “not soluble”; to “MAHHHHHHMWINKIGNKSASFINHKHFHPGNIKNLERVWLAEENEKKRKEEEEKYLKKREEQYKLYELKKQLRKNEEENKNDVHNILYDINNELKKENSFKKKILHNSISNETTPNENIVNKILIRSKYDEDIFLKNHRSIYGSYYDKEKNKWGFKCCTNIDKNSKCTNNTNCSYNLNNNLIKKDLTKSKNKKKKKKKLIVDNSITAVLNKI”, “not soluble”.
Turning to “MGSSHHHHHHSSGLVPRGSMSTSWSDRLQNAADMPANMDKHALKKYRREAYHRVFVNRSLAMEKIKCFGFDMDYTLAVYKSPEYESLGFELTVERLVSIGYPQELLSFAYDSTFPTRGLVFDTLYGNLLKVDAYGNLLVCAHGFNFIRGPETREQYPNKFIQRDDTERFYILNTLFNLPETYLLACLVDFFTNCPRYTSCETGFKDGDLFMSYRSMFQDVRDAVDWVHYKGSLKEKTVENLEKYVVKDGKLPLLLSRMKEVGKVFLATNSDYKYTDKIMTYLFDFPHGPKPGSSHRPWQSYFDLILVDARKPLFFGEGTVLRQVDTKTGKLKIGTYTGPLQHGIVYSGGSSDTICDLLGAKGKDILYIGDHIFGDILKSKKRQGWRTFLVIPELAQELHVWTDKSSLFEELQSLDIFLAELYKHLDSSSNERPDISSIQRRIKKVTHDMDMCYGMMGSLFRSGSRQTLFASQVMRYADLYAASFINLLYYPFSYLFRAAHVLMPHESTVEHTHVDINEMESPLATRNRTSVDFKDTDYKRHQLTRSISEIKPPNL”, the “soluble on expression in E. coli” value is “soluble”.
